# Measured values as given in PMC2192707.
# Biological target: T1, calnexin (UniProt P35564)
# T1 sequence: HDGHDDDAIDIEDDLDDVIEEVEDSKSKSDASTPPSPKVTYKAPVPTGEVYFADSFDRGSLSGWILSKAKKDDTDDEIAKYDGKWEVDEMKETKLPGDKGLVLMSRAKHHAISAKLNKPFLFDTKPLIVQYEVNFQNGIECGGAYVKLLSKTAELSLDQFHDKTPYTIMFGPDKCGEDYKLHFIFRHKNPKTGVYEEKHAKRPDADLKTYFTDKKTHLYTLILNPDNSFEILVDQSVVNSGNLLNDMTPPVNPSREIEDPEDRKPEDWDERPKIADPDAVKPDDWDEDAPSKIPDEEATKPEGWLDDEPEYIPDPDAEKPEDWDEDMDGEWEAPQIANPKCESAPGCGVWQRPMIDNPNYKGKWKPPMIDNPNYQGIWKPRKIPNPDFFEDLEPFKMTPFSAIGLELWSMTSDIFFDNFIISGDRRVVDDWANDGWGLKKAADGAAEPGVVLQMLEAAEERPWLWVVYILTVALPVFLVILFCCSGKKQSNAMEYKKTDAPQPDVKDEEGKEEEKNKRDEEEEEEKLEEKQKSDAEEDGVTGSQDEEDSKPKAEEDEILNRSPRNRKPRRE
# Conditions: co-IP
row,Substance,percent of heterodimers associated with calnexin
1,H-2Db class I heavy chain (endogenous in EL4),85% ofD b heterodimers
2,H-2Kb class I heavy chain,~45% ofK b heterodimers
